Patent US20220251236A1 (Boehringer Ingelheim, published 2022)

T1: EGF3+4
T1 construct: also called Hu DLL3 EGF3+4 on HEK293 cells
T1 membrane-anchored DLL3 subdomain construct: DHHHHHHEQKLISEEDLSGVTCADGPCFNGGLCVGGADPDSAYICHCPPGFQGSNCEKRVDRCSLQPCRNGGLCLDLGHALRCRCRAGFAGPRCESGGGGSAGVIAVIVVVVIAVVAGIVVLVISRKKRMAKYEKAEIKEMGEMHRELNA

T2: EGF2+3
T2 construct: also called Hu DLL3 EGF2+3 on HEK293 cells
T2 membrane-anchored DLL3 subdomain construct: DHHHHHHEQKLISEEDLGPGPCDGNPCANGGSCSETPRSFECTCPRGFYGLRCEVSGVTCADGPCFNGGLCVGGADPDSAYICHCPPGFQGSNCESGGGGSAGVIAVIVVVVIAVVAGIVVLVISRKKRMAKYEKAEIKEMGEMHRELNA

T3: EGF5+6
T3 construct: also called Hu DLL3 EGF5+6 on HEK293 cells
T3 membrane-anchored DLL3 subdomain construct: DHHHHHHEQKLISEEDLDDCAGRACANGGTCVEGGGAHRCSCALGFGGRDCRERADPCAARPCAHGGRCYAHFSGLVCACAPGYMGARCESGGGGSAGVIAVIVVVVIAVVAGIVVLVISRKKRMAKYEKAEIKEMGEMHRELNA

T4: EGF1+2
T4 construct: also called Hu DLL3 EGF1+2 on HEK293 cells
T4 membrane-anchored DLL3 subdomain construct: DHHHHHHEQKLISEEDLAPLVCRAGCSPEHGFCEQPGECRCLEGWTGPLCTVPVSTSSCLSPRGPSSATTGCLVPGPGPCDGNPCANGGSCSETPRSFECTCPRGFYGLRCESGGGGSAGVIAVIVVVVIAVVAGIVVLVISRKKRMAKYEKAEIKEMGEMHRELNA

T5: EGF4+5
T5 construct: also called Hu DLL3 EGF4+5 on HEK293 cells
T5 membrane-anchored DLL3 subdomain construct: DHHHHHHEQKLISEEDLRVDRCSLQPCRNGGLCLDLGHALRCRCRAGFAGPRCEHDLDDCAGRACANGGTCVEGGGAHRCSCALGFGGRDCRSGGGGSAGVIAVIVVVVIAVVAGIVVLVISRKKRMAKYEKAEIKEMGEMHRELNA

B1: DLL3#2/CD3#1 (bispecific antibody, human IgG1, kappa, lambda, L234A L235A)
chain 1: DIQMTQSPSAMSASVGDRVTITCRASQGISNYLAWFQQKPGKVPEPLIYAASSLQSGVPSRFSGSGSVTEFTLTISSLQPEDFATYYCLQHNSSPYTFGQGTKLEIKRTVAAPSVFIFPPSDEQLKSGTASVVCLLNNFYPREAKVQWKVDNALQSGNSQESVTEQDSKDSTYSLSSTLTLSKADYEKHKVYACEVTHQGLSSPVTKSFNRGECGGGGSEGKSSGSGSESKSTEGKSSGSGSESKSTGGGGSQVQLVQSGAEVKKPGASVKVSCKASGYTFTSYYMHWVRQAPGQGLEWMGIINPSGGSTSYAQKFQGRVTMTRDTSTSTVYMELSSLRSEDTAVYYCARGEAVGGNYYYYGMDVWGQGTTVTVSSASTKGPSVFPLAPSSKSTSGGTAALGCLVKDYFPEPVTVSWNSGALTSGVHTFPAVLQSSGLYSLSSVVTVPSSSLGTQTYICNVNHKPSNTKVDKRVEPKSCDKTHTCPPCPAPEAAGGPSVFLFPPKPKDTLMISRTPEVTCVVVDVSHEDPEVKFNWYVDGVEVHNAKTKPREEQYNSTYRVVSVLTVLHQDWLNGKEYKCKVSNKALPAPIEKTISKAKGQPREPQVYTLPPSREEMTKNQVSLWCLVKGFYPSDIAVEWESNGQPENNYKTTPPVLDSDGSFFLYSKLTVDKSRWQQGNVFSCSVMHEALHNHYTQKSLSLSPG
chain 2: EAVVTQEPSLTVSPGGTVTLTCRSSTGAVTTSNYANWVQEKPGQLPRGLIGGTNKRAPWVPARFSGSLLGGKAALTLSGAQPEDEAEYFCALWYSNLWVFGGGTKLTVLGQPKAAPSVTLFPPSSEELQANKATLVCLISDFYPGAVKVAWKADGSPVNTGVETTTPSKQSNNKYAASSYLSLTPEQWKSHRSYSCQVTHEGSTVEKTVAPAECSGGGGSEGKSSGSGSESKSTEGKSSGSGSESKSTGGGGSEVQLVESGGGLVQPGGSLKLSCAASGFTFNTYAMNWVRQAPGKGLEWVARIRSKYNNYATYYADSVKDRFTISRDDSKNTAYLQMNNLKTEDTAVYYCVRHGNFGNSYVSWFAYWGQGTLVTVSAASTKGPSVFPLAPSSKSTSGGTAALGCLVKDYFPEPVTVSWNSGALTSGVHTFPAVLQSSGLYSLSSVVTVPSSSLGTQTYICNVNHKPSNTKVDKRVEPKSCDKTHTCPPCPAPEAAGGPSVFLFPPKPKDTLMISRTPEVTCVVVDVSHEDPEVKFNWYVDGVEVHNAKTKPREEQYNSTYRVVSVLTVLHQDWLNGKEYKCKVSNKALPAPIEKTISKAKGQPREPQVYTLPPSREEMTKNQVSLSCAVKGFYPSDIAVEWESNGQPENNYKTTPPVLDSDGSFFLVSKLTVDKSRWQQGNVFSCSVMHEALHNRFTQKSLSLSPG
notes: Heterodimer of one DLL3 chain and one CD3 chain (scFab-Fc, knob-in-hole)
B2: DLL3#3/CD3#1 (bispecific antibody, human IgG1, kappa, lambda, L234A L235A)
chain 1: DIQMTQSPSAMSASVGDRVTITCRASQGISNYLVWFQQKPGKAPKRLIYAVSSLYSGVPSRFSGSGSGTEFTLTISSLQPEDFATYYCLQHDSYPYTFGQGTKLEIKRTVAAPSVFIFPPSDEQLKSGTASVVCLLNNFYPREAKVQWKVDNALQSGNSQESVTEQDSKDSTYSLSSTLTLSKADYEKHKVYACEVTHQGLSSPVTKSFNRGECGGGGSEGKSSGSGSESKSTEGKSSGSGSESKSTGGGGSQVQLVQSGAEVKKPGASVKVSCKASGYTFTSYYVHWVRQAPGQGLEWMVIINPGGGTTSYAQKFLGRVTMTRDTSTNTVYMELKSLRSEDTAVYYCARGEAVTGNYFYYGMDVWGQGTTVTVSSASTKGPSVFPLAPSSKSTSGGTAALGCLVKDYFPEPVTVSWNSGALTSGVHTFPAVLQSSGLYSLSSVVTVPSSSLGTQTYICNVNHKPSNTKVDKRVEPKSCDKTHTCPPCPAPEAAGGPSVFLFPPKPKDTLMISRTPEVTCVVVDVSHEDPEVKFNWYVDGVEVHNAKTKPREEQYNSTYRVVSVLTVLHQDWLNGKEYKCKVSNKALPAPIEKTISKAKGQPREPQVYTLPPSREEMTKNQVSLWCLVKGFYPSDIAVEWESNGQPENNYKTTPPVLDSDGSFFLYSKLTVDKSRWQQGNVFSCSVMHEALHNHYTQKSLSLSPG
chain 2: EAVVTQEPSLTVSPGGTVTLTCRSSTGAVTTSNYANWVQEKPGQLPRGLIGGTNKRAPWVPARFSGSLLGGKAALTLSGAQPEDEAEYFCALWYSNLWVFGGGTKLTVLGQPKAAPSVTLFPPSSEELQANKATLVCLISDFYPGAVKVAWKADGSPVNTGVETTTPSKQSNNKYAASSYLSLTPEQWKSHRSYSCQVTHEGSTVEKTVAPAECSGGGGSEGKSSGSGSESKSTEGKSSGSGSESKSTGGGGSEVQLVESGGGLVQPGGSLKLSCAASGFTFNTYAMNWVRQAPGKGLEWVARIRSKYNNYATYYADSVKDRFTISRDDSKNTAYLQMNNLKTEDTAVYYCVRHGNFGNSYVSWFAYWGQGTLVTVSAASTKGPSVFPLAPSSKSTSGGTAALGCLVKDYFPEPVTVSWNSGALTSGVHTFPAVLQSSGLYSLSSVVTVPSSSLGTQTYICNVNHKPSNTKVDKRVEPKSCDKTHTCPPCPAPEAAGGPSVFLFPPKPKDTLMISRTPEVTCVVVDVSHEDPEVKFNWYVDGVEVHNAKTKPREEQYNSTYRVVSVLTVLHQDWLNGKEYKCKVSNKALPAPIEKTISKAKGQPREPQVYTLPPSREEMTKNQVSLSCAVKGFYPSDIAVEWESNGQPENNYKTTPPVLDSDGSFFLVSKLTVDKSRWQQGNVFSCSVMHEALHNRFTQKSLSLSPG
notes: as for B1

How the values were obtained:
[1] = biological target: T1, EGF3+4; assay: flow cytometry on HEK293 cells expressing the DLL3 subdomain construct, PE anti-human secondary, control: secondary antibody only
Outline: (§1)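 Binders tested on HEK293 cells displaying the DLL3 subdomain construct; bound molecules detected by flow cytometry using PE-conjugated anti-human secondary antibody. Negative control: cells with secondary antibody only.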

[2] = biological target: T2, EGF2+3; assay: as above
Outline: as §1

[3] = biological target: T3, EGF5+6; assay: as above
Outline: as §1

[4] = biological target: T4, EGF1+2; assay: as above
Outline: as §1

[5] = biological target: T5, EGF4+5; assay: as above
Outline: as §1

[6] = biological target: T6, trypsin inhibitor from glycine max soybean (Glycine max (soybean)); assay: SPR (Biacore T200), trypsin inhibitor on CM5 chip, sample at 1 µM
T6 construct: also called Tryp
T6 sequence (P01070 25-205): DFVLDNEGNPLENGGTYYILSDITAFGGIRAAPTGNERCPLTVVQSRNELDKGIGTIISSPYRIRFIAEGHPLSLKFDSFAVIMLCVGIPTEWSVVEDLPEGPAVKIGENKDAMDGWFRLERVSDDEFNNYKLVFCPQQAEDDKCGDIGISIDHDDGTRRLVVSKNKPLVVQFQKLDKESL
Text: To prepare the surface for the non-specific binding experiment, chicken egg white lysozyme and trypsin inhibitor from glycine max soybean were coupled manually to a series S CM5 chip with the surface density of 3000-5000 RU using the amine coupling kit according to the manufacture instructions.

Binder | binding result [1] | binding result [2] | binding result [3] | binding result [4] | binding result [5] | Non-specific binding (RU) [6] [RU]
B1 | no binding (tested: 1.6 nM) | no binding (tested: 1.6 nM) | no binding (tested: 1.6 nM) | no binding (tested: 1.6 nM) | no binding (tested: 1.6 nM) | 2
B2 | no binding (tested: 1.6 nM) | no binding (tested: 1.6 nM) | no binding (tested: 1.6 nM) | no binding (tested: 1.6 nM) | no binding (tested: 1.6 nM) | 85
